Measured values as given in publication PMC4442525 (2015).

B1: FLAG-tagged KIR3DL1*001 [human] / HLA-B*57:01-LF9 tetramer [human | not stated] (parent complex)
chain 1: HMGGQDKPFLSAWPSAVVPRGGHVTLRCHYRHRFNNFMLYKEDRIHIPIFHGRIFQESFNMSPVTTAHAGNYTCRGSHPHSPTGWSAPSNPVVIMVTGNHRKPSLLAHPGPLVKSGERVILQCWSDIMFEHFFLHKEGISKDPSRLVGQIHDGVSKANFSIGPMMLALAGTYRCYGSVTHTPYQLSAPSDPLDIVVTGPYEKPSLSAQPGPKVQAGESVTLSCSSRSSYDMYHLSREGGAHERRLPAVRKVNRTFQADFPLGPATHGGTYRCFGSFRHSPYEWSDPSDPLLVSVTGNPSSSWPSPTEPSSKSGNPRHLHILIGTSVVIILFILLLFFLLHLWCSNKKNAAVMDQEPAGNRTANSEDSDEQDPEEVTYAQLDHCVFTQRKITRPSQRPKTPPTDTILYTELPNAKPRSKVVSCP
chain 2: not shown
chain 3: not shown
chain 4: LSSPVTKSF

Variants of: B1
Test: pHLA tetramer staining of transfected HEK293T cells; read off a plot
Work on chain 1 P163S yielded a response of about 81.
chain 1 L166R was tested, and the response was about 8.
chain 1 G138W gave a response of about 83.
For chain 1 P199L, the response was about 71.

Variants of: B1
Test: as above
Remark: another data set of the same source
chain 4 S8A was tested, and the response was about 57.
For chain 4 S8L, the response was about 58.
For chain 4 S8F, the response was about 110.
chain 4 S8H gave a response of about 99.
chain 4 S8R gave a response of about 72.

Variants of: B1
Test: as above
Remark: another data set of the same source
Work on chain 4 S8E yielded a response of about 6.
